The target in assay [1] is T1, MAGEA1 KVL peptide, threonine substitution at position 3 (L) peptide on HLA-A*02:01 (human).
T1 peptide: KVTEYVIKV
Description: cytokine release.

For assay [2], the target named is T2, MAGEA1 KVL peptide, threonine substitution at position 5 (Y) peptide on HLA-A*02:01 (human).
T2 peptide: KVLETVIKV
As to the kind of experiment: cytokine release.

The target of assay [3] is T3, ASTN1 peptide on HLA-A*02:01 (human).
T3 peptide: KLYGLDWAEL
As to the kind of experiment: cytokine release.

Assay [4] deals with T4, MAGEA1 peptide on HLA-A*02:04 (human).
T4 peptide: KVLEYVIKV
As to the kind of experiment: cytokine release.

Assay [5] concerns the target T5, MAGEA1 peptide on HLA-A*02:16 (human).
T5 peptide: KVLEYVIKV
Description: cytokine release.

Assay [6] concerns the target T6, MAGEA1 peptide on HLA-A*02:17 (human).
T6 peptide: KVLEYVIKV
As to the kind of experiment: cytokine release.

In assay [7] the target is T7, MAGEA1 KVL peptide, threonine substitution at position 1 (K) peptide on HLA-A*02:01 (human).
T7 peptide: TVLEYVIKV
Description: cytokine release.

Assay [8] concerns the target T8, MAGEA1 peptide on HLA-A*02:01 (human).
T8 peptide: KVLEYVIKV
Description: multimer staining.

B1: TCR T15.8-4.3-83 (TCR, V domains shown)
Valpha: AQKVTQAQTEISVVEKEDVTLDCVYETRDTTYYLFWYKQPPSGELVFLIRRNSFDEQNEISGRYSWNFQKSTSSFNFTITASQVVDSAVYFCALSEVASGGSYIPTFGRGTSLIVHP
Vbeta: SQTIHQWPATLVQPVGSPLSLECTVEGTSNPNLYWYRQAAGRGLQLLFYSVGIGQISSEVPQNLSASRPQDRQFILSSKKLLLSDSGFYLCAWSGSGGNQPQHFGDGTRLSIL
Take B1: the binding result in assay [1] is listed as “no recognition”; in assay [2], “no recognition”; in assay [3], “no recognition”; in assay [4] it was “recognises”; in assay [5] it was “recognises”; in assay [6], “recognises”. Besides, the results for the binding result in assay [7] and in assay [8] were “no recognition” and “recognises”, respectively.

The values above are taken from patent US20230037552A1 (published 2023).
